Data: patent US20210253718A1, “FRIZZLED5 PROTEIN-BINDING AGENTS” (Modmab Therapeutics Corporation, priority 2016, published 2021)
Changes are numbered by the printed parent chain.

T1: FZD10 CRD (Homo sapiens, UniProt Q9ULW2)
T1 construct: 30-156; GPI anchor signal (C); expressed in transfected cells; host or cells: CHO cells, lentiviral pLenti-puro
T1 sequence (Q9ULW2 30-156): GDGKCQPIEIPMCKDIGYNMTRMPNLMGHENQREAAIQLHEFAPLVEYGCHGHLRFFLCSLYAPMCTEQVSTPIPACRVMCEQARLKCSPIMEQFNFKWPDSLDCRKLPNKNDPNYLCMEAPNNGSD

T2: FZD4 CRD (Homo sapiens, UniProt Q9ULV1)
T2 construct: E42-V167; GPI anchor signal (C); expressed in transfected cells; host or cells: CHO cells, lentiviral pLenti-puro
T2 sequence (Q9ULV1 42-167): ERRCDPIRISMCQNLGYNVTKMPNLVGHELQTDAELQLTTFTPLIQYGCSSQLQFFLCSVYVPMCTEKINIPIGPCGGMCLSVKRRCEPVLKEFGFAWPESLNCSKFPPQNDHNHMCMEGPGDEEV

B1: Fab-2900: anti-FZD5 Fab with antibody variable region Fv-2900; CDR SEQ ID NOs: 35, 36, 39, 78, 115, 153 (antibody, V domains shown)
VH: EVQLVESGGGLVQPGGSLRLSCAASGFNLSSYYIHWVRQAPGKGLEWVASISSSSSSTSYADSVKGRFTISADTSKNTAYLQMNSLRAEDTAVYYCARGALDYWGQGTLVTVSS
VL: DIQMTQSPSSLSASVGDRVTITCRASQSVSSAVAWYQQKPGKAPKLLIYSASSLYSGVPSRFSGSRSGTDFTLTISSLQPEDFATYYCQQWYSGSSLFTFGQGTKVEIK
B2: Fab-2925: anti-FZD5 Fab with antibody variable region Fv-2925; CDR SEQ ID NOs: 35, 36, 64, 102, 140, 172 (antibody, V domains shown)
VH: EVQLVESGGGLVQPGGSLRLSCAASGFNLSYSSMHWVRQAPGKGLEWVASIYPSYGSTYYADSVKGRFTISADTSKNTAYLQMNSLRAEDTAVYYCARYGYFGLDYWGQGTLVTVSS
VL: B1 VL with W91A, Y92W, S93V, G94Y, S95A
B3: Fab-2929: anti-FZD5 Fab with antibody variable region Fv-2929; CDR SEQ ID NOs: 35, 36, 68, 106, 144, 162 (antibody, V domains shown)
VH: B1 VH with L29I, S31Y, S52Y, S53P, L101M
VL: B1 VL with G94S, S95Y, S96G, F98I
B4: Fab-2905: anti-FZD5 Fab with antibody variable region Fv-2905; CDR SEQ ID NOs: 35, 36, 44, 83, 120, 157 (antibody, V domains shown)
VH: EVQLVESGGGLVQPGGSLRLSCAASGFNLSYYYMHWVRQAPGKGLEWVASIYSSYSYTSYADSVKGRFTISADTSKNTAYLQMNSLRAEDTAVYYCARSGYALDYWGQGTLVTVSS
VL: DIQMTQSPSSLSASVGDRVTITCRASQSVSSAVAWYQQKPGKAPKLLIYSASSLYSGVPSRFSGSRSGTDFTLTISSLQPEDFATYYCQQSSWYYGYPFTFGQGTKVEIK

biological target: T3, FZD1 CRD (Homo sapiens, UniProt Q9UP38); test: Flow cytometry of anti-FZD5 Fab binding to CHO cells overexpressing Frizzled CRD; conditions: not given
T3 construct: D112-P238; GPI anchor signal (C); expressed in transfected cells; host or cells: CHO cells, lentiviral pLenti-puro
Protocol: (§1) Plasmids: pLCKO lentiviral vector used for knockout (TKO) library construction and expression of individual gRNAs was constructed as described previously (Hart et al., 2015). Briefly, single guide RNA (sgRNA) scaffold was amplified from px330 (Addgene 42230) and cloned into pLKO.TRC005 lentiviral vector (Broad Institute, Cambridge, Mass.) using AgeI/EcoRI restriction sites. BfuAI sites were added at the 5′ end of the sgRNA scaffold for cloning the TKO library or individual gRNA target sequences. Lenti Cas9-2A-BsdR vector used to generate Cas9 stable expression cell lines was constructed as described previously (Hart et al., 2015). Briefly, lentiCRISPR pXPR_001 (Addgene 49535) was modified through removal of the sgRNA scaffold region through NdeI/EcoRI digest and blunt ends generation using Large Klenow Fragment (NEB). 2A-puro was replaced with 2A-BsdR by PCR using the NheI/MluI sites. Each of the 10 human Frizzled cysteine rich domains (CRDs) were cloned into the lentiviral expression plasmid pLenti-puro in the following cassette: FZD_CRD-MYC-GPI.
(§2) Flow cytometry: Primary staining of cells was performed by treatment with 200 nM Frizzled profiler Fab. Alexa Fluor 488 AffiniPure F(ab′)2 was used as the secondary antibody (Jackson ImmunoResearch #109-546-097). c-Myc (9E10) IgG1 (primary antibody, Santa Cruz, lot #D0306) and Alexa Fluor 488 IgG (secondary antibody, Life technologies, lot #1458649) were used as controls. Dead cells were excluded by staining with Fixable Viability Dye eFluor 660 (eBioscience, catalogue number 65-0864). All reagents were used as per manufacturer's instructions. Flow cytometry was performed on a BD FACSCanto II flow cytometer (BD Biosciences), and data were analyzed with FlowJo software (FlowJo, LLC).
(§3) To confirm that the FZD5-WNT7B circuit is not driven simply by expression and rule out the possibility of a disconnect between RNA and protein levels for the Wnt receptors in HPAF-II cells, a panel of recombinant Fabs were generated, alternatively referred to herein as ‘Frizzled profiler’, that can detect and discriminate all but one of the ten Frizzled receptors. […] To characterize the binding specificity of these Fabs on cells, a panel of 10 CHO cell lines was generated, each expressing the CRD domain of a different myc-tagged Frizzled family member anchored at the plasma membrane through a GPI anchor (CHO-myc-FZDGPI). Despite the high sequence identity between Frizzled family members (FIG. 7A, FIG. 7B), selective Fabs were identified for FZD4, FZD5, FZD6 and FZD10 as assessed by immunofluorescence and flow cytometry (FIG. 7D and FIG. 8). […] The FZD8 CRD is most homologous to that of FZD5 (FIG. 7B). These Fabs can be used to discriminate expression of FZD1, FZD2, FZD4, FZD5, FZD6, FZD7, FZD8, FZD9 and FZD10 (FIG. 7D and FIG. 8). The ‘Frizzled profiler’ therefore consists of 10 different Fabs that can be used to discriminate expression of 9 different Frizzled family members. The Frizzled profiler was then used to confirm that HPAF-II cells express FZD1, FZD5, FZD6 and possibly FZD8 (FIG. 7E).
(§4) The binding of anti-FZD5 Fabs to cell surface-expressed Frizzled protein was further determined for each member of the Frizzled family via flow cytometry and immunofluorescence analysis of a panel of 10 CHO cell lines, each ectopically over-expressing the extracellular cysteine-rich domain (CRD) of a different Frizzled protein family member.

Row | Median fluorescence, Frizzled CRD overexpressed on CHO cells: FZD1 | Molecule
1 | 31.06 | B1
2 | 19.46 | B2
3 | 7.64 | B3
4 | 3.75 | B4

biological target: T4, FZD2 CRD (Homo sapiens, UniProt Q14332); test: as above; conditions: not given
T4 construct: D35-P161; GPI anchor signal (C); expressed in transfected cells; host or cells: CHO cells, lentiviral pLenti-puro
Protocol: as §1, §2, §3, §4

Row | Median fluorescence, Frizzled CRD overexpressed on CHO cells: FZD2 | Molecule
5 | 6.15 | B1
6 | 10.65 | B2
7 | 5.09 | B4

biological target: T1, FZD10 CRD; test: Immunofluorescence of anti-FZD5 Fab binding to CHO cells overexpressing Frizzled CRD; parameters: key: −: no binding; +: very weak binder; ++: weak binder; +++: good binder; ++++: very good binder; conditions: not given
Outline: (§5)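 Immunofluorescence readout of anti-FZD5 Fab staining on CHO cells ectopically overexpressing a single Frizzled cysteine-rich domain. Each CRD was fused to a myc tag and GPI anchor for plasma-membrane display; flow cytometry was run in parallel.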

Row | Immunofluorescence binding, Frizzled CRD overexpressed on CHO cells: FZD10 | Molecule
8 | − | B1
9 | − | B2
10 | − | B3
11 | − | B4

biological target: T4, FZD2 CRD; test: as above; parameters: key: −: no binding; +: very weak binder; ++: weak binder; +++: good binder; ++++: very good binder; conditions: not given
Outline: as §5

Row | Immunofluorescence binding, Frizzled CRD overexpressed on CHO cells: FZD2 | Molecule
12 | − | B1
13 | − | B3
14 | − | B4

biological target: T2, FZD4 CRD; test: as above; parameters: key: −: no binding; +: very weak binder; ++: weak binder; +++: good binder; ++++: very good binder; conditions: not given
Outline: as §5

Row | Immunofluorescence binding, Frizzled CRD overexpressed on CHO cells: FZD4 | Molecule
15 | − | B1
16 | − | B2
17 | − | B3
18 | − | B4

test system: ASPC-1 cells; test: Effect of anti-FZD5 Fabs on proliferation of pancreatic cancer cell lines (percent growth inhibition); type: cell-based, human; conditions: Fab 10 μg/ml
Protocol: (§6) The effect of presently disclosed anti-FZD5 Fabs on proliferation of RNF43 loss-of-function mutant pancreatic cancer cell lines HPAFII, PATU8988S and ASPC-1; and on pancreatic cancer cell line RWP1, was tested at […] and 10 μg/ml.

Row | Molecule | percent growth inhibition, ASPC-1 10 μg/ml [%]
19 | B1 | −1.26
20 | B2 | −3.44
21 | B3 | 41.25
22 | B4 | −10.34

test system: HPAFII cells; test: as above; type: cell-based, human; conditions: Fab 2 μg/ml
Protocol: as §6

Row | Molecule | percent growth inhibition, HPAFII 2 μg/ml [%]
23 | B1 | 3.34
24 | B2 | −11.24
25 | B3 | 20.20
26 | B4 | 0.41

same assay, conditions: Fab 10 μg/ml

Row | Molecule | percent growth inhibition, HPAFII 10 μg/ml [%]
27 | B1 | 3.46
28 | B2 | −17.38
29 | B3 | 33.42
30 | B4 | −12.83

test system: PATU8988S cells; test: as above; type: cell-based, human; conditions: Fab 10 μg/ml
Protocol: as §6

Row | Molecule | percent growth inhibition, PATU8988s 10 μg/ml [%]
31 | B1 | −51.41
32 | B2 | −22.86
33 | B3 | −27.58
34 | B4 | −46.23

test system: RWP1 cells; test: as above; type: cell-based, human; conditions: Fab 10 μg/ml
Protocol: as §6

Row | Molecule | percent growth inhibition, RWP1 10 μg/ml [%]
35 | B1 | −29.81
36 | B2 | 33.53
37 | B3 | 2.21
38 | B4 | 41.10

test system: CHO cells not expressing Frizzled CRD; test: Flow cytometry of anti-FZD5 Fab binding to CHO cells not expressing Frizzled CRD (background); conditions: not given
Source text: as §4

Row | Molecule | Median fluorescence, Frizzled CRD overexpressed on CHO cells: None
39 | B1 | 3.4
40 | B2 | 3.55
41 | B3 | 3.19
42 | B4 | 3.62

test system: PATU8988S cells; test: Effect of anti-FZD5 Fabs on proliferation of pancreatic cancer cell lines (percent growth inhibition); type: cell-based, human; conditions: Fab 2 μg/ml

Row | Molecule | percent growth inhibition, PATU8988s 2 μg/ml [%]
43 | B1 | −29.28
44 | B2 | −8.12
45 | B3 | −24.05
46 | B4 | −26.66

test system: ASPC-1 cells; test: as above; type: cell-based, human; conditions: Fab 2 μg/ml

Row | Molecule | percent growth inhibition, ASPC-1 2 μg/ml [%]
47 | B1 | −13.30
48 | B2 | −0.26
49 | B3 | 41.68
50 | B4 | −14.51

test system: RWP1 cells; test: as above; type: cell-based, human; conditions: Fab 2 μg/ml

Row | Molecule | percent growth inhibition, RWP1 2 μg/ml [%]
51 | B1 | −28.30
52 | B2 | 30.69
53 | B3 | 0.41
54 | B4 | 62.88
